Data as given in patent publication US20140294825A1 (JN BIOSCIENCES, published 2014).

What was measured:
[1] = biological target: T1, human FcRn (human, UniProt P55899 24-365; P61769 21-119); test: flow cytometry on NS0 cells expressing human FcRn, 1 µg/ml antibody, pH 6.0 and 7.5
T1 construct: whole, on cells; Heterodimer stably expressed on the surface of NS0 cells; also called neonatal Fc receptor; NS0/FcRn cells
Procedure: (§1) The ability of Ch9G6-IgG1, Ch9G6-IgG1/M and Ch9G6-MVIgG1 antibodies to bind to FcRn in a pH-dependent manner was analyzed by flow cytometry using NS0 cells expressing human FcRn on the cell surface (NS0/FcRn cells). NS0/FcRn transfectants stably expressing human FcRn, a heterodimer composed of the FcRn α chain and β2-microglubulin, on the cell surface was generated following the general procedure described by Hinton et al. (J. Biol. Chem. 279:6213-6216 2004), which is incorporated herein by reference. Ch9G6-IgG1, Ch9G6-IgG1/M and Ch9G6-MVIgG1 at 1 μg/ml were separately incubated with NS0/FcRn cells at pH 6.0 and 7.5 at the primary staining step following the procedure described by Hinton et al. (supra). Antibodies binding to FcRn were detected using PE-labeled goat polyclonal anti-human gamma chain antibody (for Ch9G6-IgG1 and no antibody control) or PE-labeled goat polyclonal anti-human μ chain antibody (for Ch9G6-IgG1/M, Ch9G6-MVIgG1 and no antibody control) at the secondary staining step.
(§2) The ability of Ch9G6-IgG3D, Ch9G6-IgG3D/M and Ch9G6-MVIgG3D antibodies to bind to FcRn in a pH-dependent manner was analyzed by flow cytometry using NS0 cells expressing human FcRn on the cell surface (NS0/FcRn cells). Ch9G6-IgG3D, Ch9G6-Ig3D/M and Ch9G6-MVIgG3D at 1 μg/ml were separately incubated with NS0/FcRn cells at pH 6.0 and 7.5 at the primary staining step as described in Example 4. Antibodies binding to FcRn were detected using PE-labeled goat polyclonal anti-human gamma chain antibody (for Ch9G6-IgG3D and no antibody control) or PE-labeled goat polyclonal anti-human μ chain antibody (for Ch9G6-IgG3D/M, Ch9G6-MVIgG3D and no antibody control) at the secondary staining step.

[2] = biological target: T2, recombinant human CD30 extracellular region fused at the C-terminus to the human λ2 constant region (human); test: bridging ELISA: CD79a-Fc coated, supernatant, then CD30-Cλ in solution, anti-human λ chain HRP detection; no signal means the anti-CD79a antibody did not hold CD30-Cλ
T2 construct: Cysteine at the second position from the carboxyl terminus of the constant region changed to serine; also called CD30-Cλ

[3] = biological target: T3, recombinant human CD30 extracellular region fused at the C-terminus to the Fc region of human γ1 chain (human); test: bridging ELISA: CD30-Fc coated, supernatant, then CD79a-Cλ in solution, anti-human λ chain HRP detection; no signal means the anti-CD79a antibody was not captured on CD30-Fc
T3 construct: also called CD30-Fc

[4] = biological target: T4, Protein G (Streptococcal, UniProt P19909 303-497); test: Protein G Sepharose column, culture supernatant
T4 construct: Commercial resin; also called Protein G Sepharose column

[5] = biological target: T1, human FcRn; test: flow cytometry on NS0 cells expressing human FcRn, pH 6.0 and 7.5, PE anti-human µ chain detection
Procedure: as §1, with “Ch9G6-IgG1, Ch9G6-IgG1/M and Ch9G6-MVIgG1 at 1 μg/ml were separately incubated with NS0/FcRn cells at pH 6.0 and 7.5 at the primary staining step following the procedure described by Hinton et al. (supra).” left out
as §2, with “Ch9G6-IgG3D, Ch9G6-Ig3D/M and Ch9G6-MVIgG3D at 1 μg/ml were separately incubated with NS0/FcRn cells at pH 6.0 and 7.5 at the primary staining step as described in Example 4.” left out

[6] = biological target: T5, human CD16 (human, UniProt P08637 17-254); test: flow cytometry on HEK293 cells transiently expressing human CD16, PE anti-human µ heavy chain detection
T5 construct: whole, on cells; also called Fcγ receptor type III
T5 sequence (P08637 17-254): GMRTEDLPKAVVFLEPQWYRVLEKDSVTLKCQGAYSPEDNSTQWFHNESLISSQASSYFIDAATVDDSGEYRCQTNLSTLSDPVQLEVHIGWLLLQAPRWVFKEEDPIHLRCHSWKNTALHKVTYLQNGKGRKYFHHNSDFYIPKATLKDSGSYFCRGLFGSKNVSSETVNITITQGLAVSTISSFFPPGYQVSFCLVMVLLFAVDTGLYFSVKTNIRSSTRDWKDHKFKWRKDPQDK

T1 sequence (P55899 24-365, chain 1 of 2): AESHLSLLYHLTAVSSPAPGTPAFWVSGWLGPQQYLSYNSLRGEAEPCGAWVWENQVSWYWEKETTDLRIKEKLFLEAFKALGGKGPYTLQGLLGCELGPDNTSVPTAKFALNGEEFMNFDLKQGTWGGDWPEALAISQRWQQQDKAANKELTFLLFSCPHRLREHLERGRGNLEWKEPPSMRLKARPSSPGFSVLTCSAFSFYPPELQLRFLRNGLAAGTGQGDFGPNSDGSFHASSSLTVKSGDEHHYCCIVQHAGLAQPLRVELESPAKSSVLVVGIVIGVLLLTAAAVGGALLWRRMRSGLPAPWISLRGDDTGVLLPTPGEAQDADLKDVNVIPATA
T1 sequence (P61769 21-119, chain 2 of 2): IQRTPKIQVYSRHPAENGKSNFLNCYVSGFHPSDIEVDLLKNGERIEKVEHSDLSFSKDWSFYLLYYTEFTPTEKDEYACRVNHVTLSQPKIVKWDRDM
T4 sequence (P19909 303-497): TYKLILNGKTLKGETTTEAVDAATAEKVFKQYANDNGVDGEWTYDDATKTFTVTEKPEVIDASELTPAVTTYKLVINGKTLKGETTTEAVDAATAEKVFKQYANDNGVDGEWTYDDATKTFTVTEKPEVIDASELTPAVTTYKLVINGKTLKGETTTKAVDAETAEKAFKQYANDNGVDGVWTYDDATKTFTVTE
T3 sequence (chain, as listed by the source limits assumed): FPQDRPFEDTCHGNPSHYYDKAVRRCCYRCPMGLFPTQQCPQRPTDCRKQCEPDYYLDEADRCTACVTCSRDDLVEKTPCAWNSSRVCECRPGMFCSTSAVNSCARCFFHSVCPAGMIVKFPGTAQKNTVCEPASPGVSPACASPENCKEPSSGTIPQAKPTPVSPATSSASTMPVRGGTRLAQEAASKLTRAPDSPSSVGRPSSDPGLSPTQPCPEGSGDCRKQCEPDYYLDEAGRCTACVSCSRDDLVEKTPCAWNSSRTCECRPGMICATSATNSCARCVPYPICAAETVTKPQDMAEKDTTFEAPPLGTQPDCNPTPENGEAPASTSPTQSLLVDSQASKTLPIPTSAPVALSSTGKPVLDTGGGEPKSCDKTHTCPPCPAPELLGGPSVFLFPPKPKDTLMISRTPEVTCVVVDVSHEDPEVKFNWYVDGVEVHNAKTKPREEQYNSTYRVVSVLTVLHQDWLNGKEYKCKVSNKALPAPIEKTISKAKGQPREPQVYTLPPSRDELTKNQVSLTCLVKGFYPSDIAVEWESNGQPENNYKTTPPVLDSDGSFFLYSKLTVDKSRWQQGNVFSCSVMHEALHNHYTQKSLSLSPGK
T2 sequence (chain, as listed by the source limits assumed): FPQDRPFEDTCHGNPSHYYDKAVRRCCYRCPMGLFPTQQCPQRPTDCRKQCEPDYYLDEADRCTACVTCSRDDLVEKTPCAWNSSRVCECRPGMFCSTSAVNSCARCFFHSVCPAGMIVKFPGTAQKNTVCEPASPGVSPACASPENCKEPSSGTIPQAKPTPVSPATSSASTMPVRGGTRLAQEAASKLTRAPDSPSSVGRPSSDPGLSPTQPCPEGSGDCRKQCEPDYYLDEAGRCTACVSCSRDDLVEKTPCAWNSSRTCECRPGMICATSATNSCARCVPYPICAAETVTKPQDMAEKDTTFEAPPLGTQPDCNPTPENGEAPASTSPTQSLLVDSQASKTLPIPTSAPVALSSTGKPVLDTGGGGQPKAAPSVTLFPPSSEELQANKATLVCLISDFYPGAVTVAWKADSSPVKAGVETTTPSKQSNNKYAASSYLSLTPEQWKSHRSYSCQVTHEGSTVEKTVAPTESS

B1: Ch9G6-MVIgG3D (antibody)
heavy: QVQLQQSGPELVKPGASVKISCKASGYTFSTSWMNWVKQRPGQGLEWIGRIYPGDGDTNYNGKFKGKATLTADKSSNTAYMQLSSLTSVDSAVYFCERFYYGNTFAMDYWGQGTSVTVSSASTKGPSVFPLAPCSRSTSGGTAALGCLVKDYFPEPVTVSWNSGALTSGVHTFPAVLQSSGLYSLSSVVTVPSSSLGTQTYTCNVNHKPSNTKVDKRVEPKSCDTPPPCPRCPAPELLGGPSVFLFPPKPKDTLMISRTPEVTCVVVDVSHEDPEVQFKWYVDGVEVHNAKTKPREEQYNSTFRVVSVLTVLHQDWLNGKEYKCKVSNKALPAPIEKTISKTKGQPREPQVYTLPPSREEMTKNQVSLTCLVKGFYPSDIAVEWESSGQPENNYNTTPPMLDSDGSFFLYSKLTVDKSRWQQGNIFSCSVMHEALHNRFTQKSLSLSPGKDQDTAIRVFAIPPSFASIFLTKSTKLTCLVTDLTTYDSVTISWTRQNGEAVKTHTNISESHPNATFSAVGEASICEDDWNSGERFTCTVTHTDLPSPLKQTISRPKGVALHRPDVYLLPPAREQLNLRESATITCLVTGFSPADVFVQWMQRGQPLSPEKYVTSAPMPEPQAPGRYFAHSILTVSEEEWNTGETYTCVVAHEALPNRVTERTVDKSTGKPTLYNVSLVMSDTAGTCY
light: DVLMTQIPLSLPVSLGDQASISCRSSQSIVHSNGNTYLEWYLQKPGQSPKLLIYKVSNRFSGVPDRFSGSGSGTDFTLKISRVEAEDLGVYYCFQGSHVPFTFGSGTKLEIKRTVAAPSVFIFPPSDEQLKSGTASVVCLLNNFYPREAKVQWKVDNALQSGNSQESVTEQDSKDSTYSLSSTLTLSKADYEKHKVYACEVTHQGLSSPVTKSFNRGEC
notes: Pentamer or hexamer of the H2L2 unit in native form (NS0 cells, Protein G purified); also called multivalent IgG3 antibody
B1: binds [1].

B2: Ch9G6-IgG1 (antibody)
heavy: not shown
light: DVLMTQIPLSLPVSLGDQASISCRSSQSIVHSNGNTYLEWYLQKPGQSPKLLIYKVSNRFSGVPDRFSGSGSGTDFTLKISRVEAEDLGVYYCFQGSHVPFTFGSGTKLEIKRTVAAPSVFIFPPSDEQLKSGTASVVCLLNNFYPREAKVQWKVDNALQSGNSQESVTEQDSKDSTYSLSSTLTLSKADYEKHKVYACEVTHQGLSSPVTKSFNRGEC
notes: also called chimeric IgG1 form of the mouse anti-human CD79a monoclonal antibody 9G6
B2: binds [1].

B3: Ch9G6-MVIgG1 (antibody)
heavy: not shown
light: DVLMTQIPLSLPVSLGDQASISCRSSQSIVHSNGNTYLEWYLQKPGQSPKLLIYKVSNRFSGVPDRFSGSGSGTDFTLKISRVEAEDLGVYYCFQGSHVPFTFGSGTKLEIKRTVAAPSVFIFPPSDEQLKSGTASVVCLLNNFYPREAKVQWKVDNALQSGNSQESVTEQDSKDSTYSLSSTLTLSKADYEKHKVYACEVTHQGLSSPVTKSFNRGEC
notes: also called multivalent anti-CD79a IgG1 antibody
B3: no binding [2]; binds [1]; no binding [3].

B4: Ch9G6-IgG3D (antibody)
heavy: QVQLQQSGPELVKPGASVKISCKASGYTFSTSWMNWVKQRPGQGLEWIGRIYPGDGDTNYNGKFKGKATLTADKSSNTAYMQLSSLTSVDSAVYFCERFYYGNTFAMDYWGQGTSVTVSSASTKGPSVFPLAPCSRSTSGGTAALGCLVKDYFPEPVTVSWNSGALTSGVHTFPAVLQSSGLYSLSSVVTVPSSSLGTQTYTCNVNHKPSNTKVDKRVEPKSCDTPPPCPRCPAPELLGGPSVFLFPPKPKDTLMISRTPEVTCVVVDVSHEDPEVQFKWYVDGVEVHNAKTKPREEQYNSTFRVVSVLTVLHQDWLNGKEYKCKVSNKALPAPIEKTISKTKGQPREPQVYTLPPSREEMTKNQVSLTCLVKGFYPSDIAVEWESSGQPENNYNTTPPMLDSDGSFFLYSKLTVDKSRWQQGNIFSCSVMHEALHNRFTQKSLSLSPGK
light: DVLMTQIPLSLPVSLGDQASISCRSSQSIVHSNGNTYLEWYLQKPGQSPKLLIYKVSNRFSGVPDRFSGSGSGTDFTLKISRVEAEDLGVYYCFQGSHVPFTFGSGTKLEIKRTVAAPSVFIFPPSDEQLKSGTASVVCLLNNFYPREAKVQWKVDNALQSGNSQESVTEQDSKDSTYSLSSTLTLSKADYEKHKVYACEVTHQGLSSPVTKSFNRGEC
notes: NS0 cells, Protein G purified; monomer of about 150 kDa; also called chimeric anti-CD79a IgG3 monoclonal antibody (first, second and third hinge regions eliminated)
B4: binds [1].

B5: Ch9G6-IgG3D/M (antibody)
heavy: QVQLQQSGPELVKPGASVKISCKASGYTFSTSWMNWVKQRPGQGLEWIGRIYPGDGDTNYNGKFKGKATLTADKSSNTAYMQLSSLTSVDSAVYFCERFYYGNTFAMDYWGQGTSVTVSSASTKGPSVFPLAPCSRSTSGGTAALGCLVKDYFPEPVTVSWNSGALTSGVHTFPAVLQSSGLYSLSSVVTVPSSSLGTQTYTCNVNHKPSNTKVDKRVEPKSCDTPPPCPRCPDQDTAIRVFAIPPSFASIFLTKSTKLTCLVTDLTTYDSVTISWTRQNGEAVKTHTNISESHPNATFSAVGEASICEDDWNSGERFTCTVTHTDLPSPLKQTISRPKGVALHRPDVYLLPPAREQLNLRESATITCLVTGFSPADVFVQWMQRGQPLSPEKYVTSAPMPEPQAPGRYFAHSILTVSEEEWNTGETYTCVVAHEALPNRVTERTVDKSTGKPTLYNVSLVMSDTAGTCY
light: DVLMTQIPLSLPVSLGDQASISCRSSQSIVHSNGNTYLEWYLQKPGQSPKLLIYKVSNRFSGVPDRFSGSGSGTDFTLKISRVEAEDLGVYYCFQGSHVPFTFGSGTKLEIKRTVAAPSVFIFPPSDEQLKSGTASVVCLLNNFYPREAKVQWKVDNALQSGNSQESVTEQDSKDSTYSLSSTLTLSKADYEKHKVYACEVTHQGLSSPVTKSFNRGEC
notes: NS0 cells, purified on anti-human IgM agarose; mixture of species (650, 180, 90 kDa peaks); also called Ch9G6-Ig3D/M
B5: no binding [4]; no binding (tested: 1 µg/ml) [5]; no binding (tested: 1 µg/ml) [6].
